Results published in the supplement of paper PMC9170038.

Tested on: K4 kissing-loop RNA reporter
Assay: apparent KD of K4 kissing-loop reporter; higher = weaker reporter binding
Conditions: Eterna round: R107
Method: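 RNA-MaP round R107: designed RNA switches with theophylline, tryptophan, arginine or FMN aptamers are transcribed on-chip within common flanks. They are titrated with a labelled K4 kissing-loop RNA reporter in RNA-MaP buffer (100 mM Tris pH 7.5, 80 mM KCl, 4 mM MgCl2), without ligand or with the indicated ligand. Median apparent KD per design.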

[1] = input ligand: theophylline 20 uM
[2] = input ligand: tryptophan 2.4 mM
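Note: bound reporter read as fluorescence of individual clusters on recovered sequencing chips by microscopy, with normalized cluster intensities fitted with a binding model.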

Row | Sequence | apparent KD of K4 kissing-loop reporter (input ligand: FMN 200 uM) [nM] | apparent KD of K4 kissing-loop reporter (input ligand: arginine 13.2 mM) [nM] | apparent KD of K4 kissing-loop reporter (input ligand: none) [nM] | apparent KD of K4 kissing-loop reporter [1] [nM] | apparent KD of K4 kissing-loop reporter [2] [nM]
1 | CUGACCAACAGCGAUACCAGUGUGGAGUGAUGUUCCCUGGUCCGGGCUGAUGUUCCCUUGCGCCCUUGGCAGCGCAGAAGCAGGU [Exclusion Theophylline B GF 13] | 433 | 295 | 359 | 349 | 338
2 | AGACUACCACACUGUCAAUAGACAGUGAACUAGGAUAUGCUGAUAAGCAGAAGGAGUGAUGUUCCUCGGUAGUCAAUAAAAUAAU [FmnAX 13 C67] | 419 | 255 | 303 | 346 | 235
3 | AGGUCCGAGCCCGGAAGGGCUCGGACCUGUUAGGAUAUGACGUUAUUCAGAAGGGAUGGGUGGAGUGAUGUUCCACCCGCAAGGG [#2 Same State - FMN A Attempt #9 (HarryS)] | 70 | 96.3 | 111 | 102 | 86.5
4 | AAAAUAAAUAGCAGUCACGGAGUGAUGUUCCGAGGACCGGUACGGCCGCCACUCGACCAUCAUAAGAUGGAAUGGCGAGACUGCA [#SwitchBubble 21 #K4Early] | 134 | 135 | 137 | 138 | 354
5 | UACCUAUUAUUAACACUAUAUACAACUGAAGGAGCGACAAUAAAGUCAGGUAGGUCGCAGAAUUAAUGAGUGAUGUUCAUUUUUA [JR_ExcArginiA_Sub014] | 84.3 | 136 | 95.3 | 110 | 59.7
6 | AAGCCGGUUGCGGCCGCCACUUUUGCGGACCCGGUGCAGUGAUGUUGCGCAUCGCGGGUUGCUUAAAGGACCGGGCACCUCUAAC [theeternabot_sameState_KL_Trp_B_7] | 418 | 359 | 401 | 363 | 327
7 | UUAGUCUAGAGAAGGAGCGCAGUGAUGUUGCGAAUAAUAAUAAUAAUAAAUAAAUAAUCGAUGCAGGUAGGUCGCUCUAGACAUU [AK1 Exc Arginine B] | 217 | 422 | 288 | 335 | 213
8 | GAGCCAACCGUCGAUACCAGCCGCACGUCAUUCACUCAAUGCUGAGGAGCCAGUGAUGUUGGCCCUUGGCAGCGAAGCAACGAUC [theeternabot_exclusion_KL_Theo_B_43] | 97.5 | 91.8 | 93.5 | 93.5 | 93.2
9 | AGUGUGCAAAAGCACACUCAGAACAAGGACAAGGAUAUCUACUAAUAGAGAAGGUGUCCUUUCCUUAGUGAUGUUAAGGAUCUGA [Omei KL FMN A SS D v4] | 270 | 424 | 596 | 486 | 564
10 | CGGUUAUAGCAGGAUACCAGUACCCAUUAUGUACGUUUAUAGUAGAGUGAUGUUCUAAAGUACCCUUGGCAGCUUCCCGUGACCC [#23 K4 Theophylline B Exclusion] | 150 | 199 | 168 | 265 | 127
11 | AUAGCACCUUAUGAUACCAGACGAGUGAUGUUCUGUGGUGUCGUCACAAGGCAAUCGACUGUCCCUUGGCAGCAUCAUUCUAUAU [theeternabot_exclusion_KL_Theo_B_31] | 563 | 531 | 453 | 722 | 730
12 | UGUGUUUUUUUGAUGUUUGUUGUAAAAUGGCAGGAUAUCGUAGAGGCGAGAAGGGCUUUUAUGCGUUAUGAGUGAUGUUUGUAGG [qqdqmullin] | 316 | 297 | 315 | 336 | 241
13 | GUAGAUAGGCAACAUCCCUAGUCUACAGACUAGGAUAUCAGGAAACUGAGAAGGAGUCUCCUUGCAGUGAUGUUGCAAGAAUAAU [[F]''-[K]'-[F]'-[F1]-[F2]-[K1]-[K2]_Design5] | 185 | 181 | 200 | 83.6 | 161
14 | AUAAUAUUGCGAGGAUAUCCUUCCCACGUCGAAGUACCGUGCUUGAUGGAGUGAUGUUCGAUCAGAGGAGAAGGCGCGGUGUUGU [Same State FMN B GF23] | 734 | 543 | 656 | 611 | 571
15 | AAACAGCACUGGGAGUGAUGUUCUCAGUGACGAGGACCGGUACGGCCGCCACUCGCGAGAGAACUAGUCUAGACUUGACUGCAUA [Excl Tryptophan A V15] | 181 | 138 | 145 | 149 | 205
16 | AUAUCUGUUCGAAAGAACGGAUCUUCGGAAGGAGCGCGUGAAAACGCAGGUAGGUCGCCGAAGUUAUUAGGUAGUGAUGUUACCU [Arginine A K4 7] | 129 | 96.4 | 113 | 101 | 109
17 | UGAUACCAGACUGAUACCAGCAAGUGAUGUUUGUUGAUCUAUGCAGUCAAAGACUGCUCUUGCCCUUGGCAGCAGUCUGGUAUCU [TheoBX 28 #SwitchBubble #StaticStem] | 762 | 640 | 1040 | 409 | 777
18 | GGUAGCAUGGCGGCCGCCACUGGAGAGUGAUGUUCUCCACUAGGUUACAACGCCGGACAGUCCACCAGGACCGGGCCAUGCUACC | 140 | 106 | 131 | 129 | 436
19 | GCAUCCGAUGCAGGAUAUAGAUGAACGAGUGAUGUUUGGAAUUUAUGUCCAAAGCCUACGAUCAAACUAGAAGGGCAUCGGAUGC | 334 | 266 | 161 | 167 | 192
